Reference: PMC6418199 (Scientific Reports, 2019)

B1: 32D6 human monoclonal antibody (antibody, V domains shown)
VH: QVQLQESGPGLVKPSETLSLTCTVSGGSVNTGSYYWSWIRQPPGKGLEWIAYSSVSGTSNYNPSLKSRVTLTVDTSKNQFSLSVRSVTAADTAVYFCARLNYDILTGYYFFDFWGQGTLVIVSS
VL: QVELTQSPSASASLGTSVKLTCTLSSGHSTYAIAWHQQRPGKGPRYLMNLSSGGRHTRGDGIPDRFSGSSSGADRYLIISSLQSEDEADYYCQTWDAGMVFGGGTKLTVL
B2: 32D6-Fab (Fab, V domains shown)
VH: B1 VH
VL: B1 VL
notes: also called Fab of 32D6; His-tagged Fab of 32D6 (with the CH1 domain); source: Expi293F cells, purified (HisTrap excel column)

Assays:
[1] = molecular target: hemagglutinin of H1N1 clinical isolate A/Taiwan/80813/2013 (genotype A/California/07/2009) (Influenza A virus A/Taiwan/80813/2013 …, UniProt C3W5X2, strain); test: cell-based or functional assay
[2] = molecular target: hemagglutinin of H1N1 clinical isolate 2013-INF-152 (genotype A/California/07/2009) (Influenza A virus H1N1, clinical …, UniProt C3W5X2, strain); test: cell-based or functional assay
[3] = molecular target: hemagglutinin of H1N1 clinical isolate 2013-INF-153 (genotype A/California/07/2009) (Influenza A virus H1N1, clinical …, UniProt C3W5X2, strain); test: cell-based or functional assay
[4] = molecular target: hemagglutinin of H1N1 clinical isolate 2014-INF-36 (genotype A/California/07/2009) (Influenza A virus H1N1, clinical …, UniProt C3W5X2, strain); test: cell-based or functional assay
[5] = molecular target: hemagglutinin of H1N1 clinical isolate 2014-INF-37 (genotype A/California/07/2009) (Influenza A virus H1N1, clinical …, UniProt C3W5X2, strain); test: cell-based or functional assay
[6] = molecular target: HA1 domain (residues 63-290) of hemagglutinin from A/California/07/2009 (H1N1) (Influenza A virus …, UniProt C3W5X2); test: SPR; […], single-cycle kinetics, 25 °C; […]; 10 mM HEPES pH 7.4, 150 mM NaCl; settings: both partners purified

Binder	Neutralization EC50 (infection of MDCK cells, high-content image system) [1]	Neutralization EC50 (infection of MDCK cells, high-content image system) [2]	Neutralization EC50 (infection of MDCK cells, high-content image system) [3]	Neutralization EC50 (infection of MDCK cells, high-content image system) [4]	Neutralization EC50 (infection of MDCK cells, high-content image system) [5]	Kd [6]	koff [6]	kon [6]
B1	0.036 µg/mL	0.014 µg/mL	0.005 µg/mL	0.011 µg/mL	0.012 µg/mL			
B2						0.353 nM	9.12e-05 s⁻¹	258000 M⁻¹ s⁻¹
